{"source": "patent US20150057236A1", "about": "(CORNELL UNIVERSITY, published 2015)", "assay_in_all_cases": "cell-based or functional assay", "key": {"[1]": {"biological_target": "T1, human Sirt1 (human, UniProt Q96EB6 1-747, limits assumed)", "T1 sequence (looked up)": "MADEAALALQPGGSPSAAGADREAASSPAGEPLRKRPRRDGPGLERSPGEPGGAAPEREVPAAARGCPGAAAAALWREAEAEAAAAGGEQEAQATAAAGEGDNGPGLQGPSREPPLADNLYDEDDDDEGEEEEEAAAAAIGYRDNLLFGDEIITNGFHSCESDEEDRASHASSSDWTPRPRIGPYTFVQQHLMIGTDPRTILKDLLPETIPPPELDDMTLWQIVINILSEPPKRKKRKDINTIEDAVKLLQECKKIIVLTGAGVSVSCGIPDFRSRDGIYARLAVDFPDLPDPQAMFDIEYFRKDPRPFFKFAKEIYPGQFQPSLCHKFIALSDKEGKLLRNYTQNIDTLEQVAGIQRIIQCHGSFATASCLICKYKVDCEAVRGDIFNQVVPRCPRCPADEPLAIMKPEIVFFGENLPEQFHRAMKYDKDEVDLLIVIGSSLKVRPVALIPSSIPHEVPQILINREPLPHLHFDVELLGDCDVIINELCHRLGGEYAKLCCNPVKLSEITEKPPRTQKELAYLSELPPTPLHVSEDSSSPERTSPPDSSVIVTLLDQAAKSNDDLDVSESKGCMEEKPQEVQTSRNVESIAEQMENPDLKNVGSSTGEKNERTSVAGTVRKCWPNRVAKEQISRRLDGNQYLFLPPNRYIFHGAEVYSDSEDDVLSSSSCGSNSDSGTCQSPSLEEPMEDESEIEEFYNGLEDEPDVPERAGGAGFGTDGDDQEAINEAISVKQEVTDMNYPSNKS"}, "[2]": {"biological_target": "T2, human Sirt2 (human, UniProt Q8IXJ6 1-389, limits assumed)", "T2 sequence (looked up)": "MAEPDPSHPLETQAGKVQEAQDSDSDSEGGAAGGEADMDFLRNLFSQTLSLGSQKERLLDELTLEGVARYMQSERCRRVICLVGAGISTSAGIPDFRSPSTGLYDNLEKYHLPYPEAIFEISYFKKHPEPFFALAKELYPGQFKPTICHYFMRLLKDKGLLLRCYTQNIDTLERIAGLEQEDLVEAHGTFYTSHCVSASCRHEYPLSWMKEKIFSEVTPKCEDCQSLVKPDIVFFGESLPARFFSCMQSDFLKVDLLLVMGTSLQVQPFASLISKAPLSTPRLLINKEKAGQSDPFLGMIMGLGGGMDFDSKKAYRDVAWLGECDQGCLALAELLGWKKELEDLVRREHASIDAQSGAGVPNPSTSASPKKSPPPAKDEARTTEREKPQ"}, "[3]": {"biological_target": "T3, human Sirt5 (human, UniProt Q9NXA8 1-310, limits assumed)", "T3 sequence (Q9NXA8 whole entry)": "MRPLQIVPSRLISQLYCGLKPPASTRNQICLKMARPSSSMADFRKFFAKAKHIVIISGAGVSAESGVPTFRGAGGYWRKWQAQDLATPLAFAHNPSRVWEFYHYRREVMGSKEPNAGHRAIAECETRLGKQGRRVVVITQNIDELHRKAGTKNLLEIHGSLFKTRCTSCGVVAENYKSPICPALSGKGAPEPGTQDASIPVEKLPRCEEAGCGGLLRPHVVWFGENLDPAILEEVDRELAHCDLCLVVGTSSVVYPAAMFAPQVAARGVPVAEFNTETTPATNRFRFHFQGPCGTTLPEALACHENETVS"}, "[4]": {"biological_target": "T4, human Sirt3 (human, UniProt Q9NTG7 102-399, limits assumed)", "T4 sequence (looked up)": "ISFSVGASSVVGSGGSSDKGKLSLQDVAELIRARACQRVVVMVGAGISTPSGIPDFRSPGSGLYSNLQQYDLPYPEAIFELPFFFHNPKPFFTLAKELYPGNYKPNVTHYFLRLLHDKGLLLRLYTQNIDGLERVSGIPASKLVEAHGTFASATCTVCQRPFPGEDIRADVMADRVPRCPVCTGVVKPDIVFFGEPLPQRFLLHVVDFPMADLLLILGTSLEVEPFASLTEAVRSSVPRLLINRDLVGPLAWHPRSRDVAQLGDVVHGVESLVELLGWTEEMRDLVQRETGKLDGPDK"}, "[5]": {"biological_target": "T3, human Sirt5", "remark": "listed apart in the source"}}, "note": "*1 amine or outer side, *2 acyl side, *3 side chain or, on linkers, in order; H or OH if unused. Where no end group is shown, it is not given here. The star is where a group is joined. thiosuccinyl = thiosuccinyl group on a lysine side chain (thiosuccinyl lysine); AMC = Cc1cc(=O)oc2cc(N*)ccc12; Suc = O=C(CCC(=O)[*:2])[*:1]"}
{"binder": "KQTARK(thiosuccinyl)STGGKA", "note": "[H3K9 thiosuccinyl (H3K9 TSu) peptide, KQTAR(TSuK)STGGKA]", "values": [{"measurement": "IC50 (µM), inhibition of sirtuin deacylase activity", "setting": "[1]", "result": "> 100", "unit": "µM"}, {"measurement": "IC50 (µM), inhibition of sirtuin deacylase activity", "setting": "[2]", "result": "> 100", "unit": "µM"}, {"measurement": "IC50 (µM), inhibition of sirtuin deacylase activity", "setting": "[3]", "result": 5, "unit": "µM"}, {"measurement": "IC50 (µM), inhibition of sirtuin deacylase activity", "setting": "[4]", "result": "> 100", "unit": "µM"}]}
{"binder": "ISGASEK(Suc)-{AMC}", "note": "[ISGASE(SuK)-AMC peptide]", "values": [{"measurement": "fluorescence increase against control without Sirt5, 1 µM Sirt5", "setting": "[5]", "result": 11, "unit": "fold"}, {"measurement": "fluorescence increase against control without Sirt5, 2 µM Sirt5", "setting": "[5]", "result": 20, "unit": "fold"}, {"measurement": "fluorescence increase against control without Sirt5, 5 µM Sirt5", "setting": "[5]", "result": 26, "unit": "fold"}]}
{"binder": "KQTARK(Suc)-{AMC}", "note": "[KQTAR(SuK)-AMC peptide]", "values": [{"measurement": "fluorescence increase against control without Sirt5 (fluorogenic assay)", "setting": "[5]", "result": "~3", "unit": "fold"}]}
